Laboratory results from patent US10508147B2, “Anti-nodal antibodies and methods of using same” (ANN AND ROBERT H. LURIE CHILDREN'S HOSPITAL OF CHICAGO, priority 2014, dated 2019).
Values joined by “and” are separate entries in the source; they are usually repeats but may differ in a detail not shown here. Equal entries are not always repeated. “Also recorded” adds a separate entry of the source.

How the values were obtained:
rhNodal = target: T1, rhNodal (Homo sapiens, UniProt Q96S42); experiment: SPR direct binding of mAbs and 3D1 fragments to rhNodal immobilized on a CM5 sensor chip
T1 construct: E. coli derived His238 Leu347, with an N-terminal Met; purchased R&D System 3218ND; host or cells: E. coli
T1 sequence (Q96S42 238-347): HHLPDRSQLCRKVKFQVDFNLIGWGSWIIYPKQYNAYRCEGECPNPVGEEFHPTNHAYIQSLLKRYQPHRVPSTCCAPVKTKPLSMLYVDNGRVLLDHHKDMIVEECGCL
Procedure: Antibodies (mAbs) that selectively recognized wild type human Nodal (E49E50) were further screened in order to identify mAbs that bound full length Nodal. Surface plasmon resonance (SPR) biosensor direct binding assay was used. Recombinant human Nodal protein (rhNodal, E. coli derived His238 Leu347, with an N-terminal Met Accession # Q96S42, cat. num 3218ND, R&D System) was immobilized on a CM5 sensor chip.
SPR analyses were performed on a Biacore 3000 instrument from GE Healthcare, using CM5 sensor chips and certified HBS buffer (20 mM HEPES, 0.15 M NaCl, pH 7.4, P20, 0.005%). Protein immobilization was carried out following the canonical amine coupling chemistry using the surface immobilization wizard procedure, operating at 5 μL/min. Channels were activated with EDC/NHS for 7 min; for the binding assays of purified mAbs to Nodal protein, rhNodal, opportunely diluted in the pre-selected sodium acetate buffer pH 4.5, was coupled until a 4000 RU level was achieved. Residual reactive groups on the sensor chip surface were deactivated by addition of 1.0 M ethanolamine hydrochloride, pH 8.5. Antibody binding was tested at 20 μL/min injecting solutions of 3D1 (60 μL) in HBS-EP at increasing concentrations (6-100 nM). A 10 mM NaOH solution was used to regenerate the chip surface.
After the single-dose screening, dose-dependent binding analyses were carried out with the two antibodies, 3D1 and 5F10, able to bind the full-length protein. Binding of 3D1 was carried out at concentrations ranging between 6 and 100 nM. For 5F10 higher concentrations were required (100, 250, 500 and 750 nM). Dissociations were monitored for at least 500 s. To carry out the mapping of the 3D1 epitope, the whole antibody was immobilized at 5 μg/mL in 10 mM NaAc buffer pH 5 at a flow rate of 5 μL/min by standard amine coupling chemistry on a CM5 sensor chip. The immobilization level reached with the mAb was about 5350 RU. On another channel of the same sensor chip, the 3D1 Fab′ was immobilized at 10 μg/mL in 10 mM NaAc buffer pH 4.5 at a flow rate of 5 μL/min, following the standard amine coupling chemistry. The amount of immobilized Fab′ was about 2570 RU. Residual reactive groups were deactivated by 1M ethanolamine hydrochloride, pH 8.5. The blank channel was prepared as already described. Real-time binding analyses were performed at a flow rate of 20 μL/min, using HBS-EP buffer, injecting a constant sample volume of 60 μL. Peptides opportunely diluted in HBS-EP buffer were injected at the following concentrations: 0.5, 1, 2.5, 5, 10, and 20 μM. Dissociations were monitored for at least 500 s; the regeneration solution was 5 mM NaOH.
For each analysis, experimental sensorgrams were aligned, subtracted of blank signals and overlapped. All mathematical manipulations and fitting were performed using the BiaEvaluation software, vers. 4.1 from GE Healthcare. All experimental data gave optimal fittings when processed assuming a 1:1 Langmuir binding interaction.
SPR analyses were performed at 25° C. using HBS as running buffer. Protein immobilization was carried out following the canonical amine coupling chemistry using the surface immobilization wizard procedure, operating at 5 μL/min. Channels were activated with EDC/NHS [N-(3-dimethylaminopropyl)-N′-ethylcarbodiimide hydrochloride(EDC)/[…](NHS) for 7 min; for the binding assays, rhNodal, appropriately diluted in the pre-selected sodium acetate buffer pH 4.5, was coupled until a 4000 RU level was achieved. Residual reactive groups on the sensor chip surface were deactivated by addition of 1.0 M ethanolamine hydrochloride, pH 8.5. Antibody binding was tested at 20 μL/min injecting solutions of 3D1 (60 μL) in HBS at increasing concentrations (6.0 nM-100 nM). A 10 mM NaOH solution was used to regenerate the chip surface. […]

C8161 melanoma cells = experiment: Western blot analysis of C8161 melanoma cells treated with anti-Nodal antibody; assay type: cell-based, human; settings: for phosphorylation of Smad2 and MAPK (ERK1/2): 1 hr to 72 hr
Procedure: Experiments were conducted in order to assess and characterize the ability of the 3D1 antibody to inhibit Nodal activity. 3D1 reduced Nodal expression, clonogenicity, and vasculogenic mimicry in metastatic melanoma cells (See FIG. 24). C8161 melanoma cells treated with an IgG-Control (negative control) or 4 μg/ml of either Santa Cruz (SC) (used as positive control) or 3D1 function blocking anti-Nodal antibodies for 72 hours.
Additional studies were performed in order to determine if 3D1 antibody could alter phosphorylation of Smad2 or MAPK. […] Western blot analysis of C8161 melanoma cells treated with 3D1 (4 μg/ml) vs. untreated control for 1 hr, 2 hr, 4 hr, 6 hr or 72 hr (See FIG. 25).
To determine the level of Nodal expression in brain, kidney, liver, pancreas, heart and skeletal muscle ready to use adult tissue extracts for Western blotting (WB) were purchased from Santa Cruz Biotechnology. For WB experiments of cell lines, whole cell lysates were prepared and quantified. SDS-PAGE gel electrophoresis and WB were performed using standard techniques. PVDF membranes were blocked in 5% non-fat milk or 5% BSA and antibodies diluted in either 5% non-fat milk or 5% bovine serum albumin overnight at 4° C., depending on the manufacturer's recommendations. Signal was detected using West Pico chemiluminescence reagent (Thermo Fisher) and exposure to x-ray film.

B1: 3D1: mouse monoclonal anti-Nodal antibody raised against hNodal(44-67); light chain SEQ ID NO:1, heavy chains SEQ ID NO:2 and 3 (protein)
light: DIKMTQSPASLSASVGETVTITCRASGNIHNYLAWYQQKQGKSPQLLVYNAKTLADGVPSRFSGSGSGTQYSLKINSLQPEDFGSYYCQHFWSTPHVRCWDQAGTETEAW
heavy 1: VKLVESGGGLVKPGGSLKLSCAASGFTFSSYAMSWVRQTPEKRLEWVASISSGGCTYYPDSVKGRFTISRDNARNILYLQMSSLRSEDTAMYYCARGSMITADGNSLLLCYGLLGSRNLXHR
heavy 2: VKLVESGGGLVQPGGSMKLSCVASGFTFRNYWMSWVRQSPEKGLEWVAEIRLKSDNYAARYAESVKGKFTISRDDSKSRLYLQMNSLRAEDTGIYYCTGIRRFAYWGQGTL
modifications: not fully specified; (120)..(120) Xaa can be any naturally occurring amino acid
average kd (rhNodal): 0.000655 s⁻¹
Kd (rhNodal; Average over concentrations): 1.42 nM
ka (rhNodal; Average over concentrations): 695000 M⁻¹ s⁻¹
kd (rhNodal; Average over concentrations): 0.000655 s⁻¹
Kd (rhNodal; Example 1, hNodal immobilized on CM5 chip, antibody injected): ~1.3 nM
Kd (rhNodal; Examples 2 and 4, running text, averaged over dose-dependent runs): 1.42 nM and 1.4 nM
Kd (rhNodal; analyte injected at 6 nM): 0.491 nM
ka (rhNodal; analyte injected at 6 nM): 1.28e+06 M⁻¹ s⁻¹
kd (rhNodal; analyte injected at 6 nM): 0.000629 s⁻¹
Kd (rhNodal; analyte injected at 12 nM): 0.698 nM
ka (rhNodal; analyte injected at 12 nM): 979000 M⁻¹ s⁻¹
kd (rhNodal; analyte injected at 12 nM): 0.000683 s⁻¹
Kd (rhNodal; analyte injected at 25 nM): 0.968 nM
ka (rhNodal; analyte injected at 25 nM): 642000 M⁻¹ s⁻¹
kd (rhNodal; analyte injected at 25 nM): 0.000622 s⁻¹
Kd (rhNodal; analyte injected at 50 nM): 1.93 nM
ka (rhNodal; analyte injected at 50 nM): 361000 M⁻¹ s⁻¹
kd (rhNodal; analyte injected at 50 nM): 0.000697 s⁻¹
Kd (rhNodal; analyte injected at 100 nM): 3.03 nM
ka (rhNodal; analyte injected at 100 nM): 212000 M⁻¹ s⁻¹
kd (rhNodal; analyte injected at 100 nM): 0.000644 s⁻¹
ability to bind the full-length rhNodal protein (rhNodal; single-dose SPR screening, mAbs at 100 nM): able to bind the full-length rhNodal protein
inhibition of Nodal protein expression (C8161 melanoma cells; 4 μg/ml, 72 hours, Western blot vs IgG control): 50%
phosphorylation of Smad2 and MAPK (ERK1/2) (C8161 melanoma cells; 4 μg/ml): reduced phosphorylation of Smad2 and MAPK
phosphorylation of Smad2 and MAPK (ERK1/2) (C8161 melanoma cells; 4 μg/ml, listed as 3D1 mAb): reduction in phosphorylation; also recorded: reduced
p27 level (C8161 melanoma cells; 72 hr): increases
phospho-Histone H3 (P-H3) level (C8161 melanoma cells; 72 hr): increases
Nodal expression (C8161 melanoma cells; 72 hr, 4 μg/ml, vs IgG control, listed as 3D1 mAb): reduction in Nodal expression
Cyclin B1 level (C8161 melanoma cells; 72 hr, listed as 3D1 mAb): reduced; also recorded: reduction
p27 level (C8161 melanoma cells; 72 hr, listed as 3D1 mAb): increase
phospho-Histone H3 (P-H3) level (C8161 melanoma cells; 72 hr, listed as 3D1 mAb): reduction
